# Molecular target: Hsp90alpha recombinant (UniProt P07900 1-732)
# Assay: filter binding
binder,measurement,value
"CTGCTAGCCTCTGGATTTGA (XNA, full PS; LNA nt 1-5 and 16-20, DNA 6-15) [390896 PS/LNA 5-10-5]",Kd,17.7 nM
